Values of other authors, collected in article PMC6842113.

Molecular target: PSD-95 PDZ3-SH3-GK (Homo sapiens) (UniProt P78352)

- Kd: 0.2 µM
Substance: SynGAP C-terminus (from UniProt Q9QUH6)
